B1: SIIV (peptide)
peptide: SIIV
notes: also called DAT-C5 variant
B2: SVRV (peptide)
peptide: SVRV
notes: also called DAT-C5 variant
B3: SVIV (peptide)
peptide: SVIV
notes: also called DAT-C5 variant
B4: EIIV (peptide)
peptide: EIIV
notes: also called DAT-C5 variant
B5: FYVRV (peptide)
peptide: FYVRV
notes: also called DAT-C5 variant
B6: FEVIV (peptide)
peptide: FEVIV
notes: also called DAT-C5 variant
B7: FYIIV (peptide)
peptide: FYIIV
notes: also called DAT-C5 variant
B8: FEVRV (peptide)
peptide: FEVRV
notes: also called DAT-C5 variant
B9: FYVIV (peptide)
peptide: FYVIV
notes: also called DAT-C5 variant
B10: FYIRV (peptide)
peptide: FYIRV
notes: also called DAT-C5 variant
B11: TYIIV (peptide)
peptide: TYIIV
notes: also called DAT-C5 variant
B12: FSVRV (peptide)
peptide: FSVRV
notes: also called DAT-C5 variant
B13: TYVIV (peptide)
peptide: TYVIV
notes: also called DAT-C5 variant
B14: TYIRV (peptide)
peptide: TYIRV
notes: also called DAT-C5 variant
B15: FSIRV (peptide)
peptide: FSIRV
notes: also called DAT-C5 variant
B16: TYVRV (peptide)
peptide: TYVRV
notes: also called DAT-C5 variant
B17: FEIRV (peptide)
peptide: FEIRV
notes: also called DAT-C5 variant
B18: FEIIV (peptide)
peptide: FEIIV
notes: also called DAT-C5 variant
B19: FSIIV (peptide)
peptide: FSIIV
notes: also called DAT-C5 variant
B20: NYIRV (peptide)
peptide: NYIRV
notes: also called DAT-C5 variant
B21: NYIIV (peptide)
peptide: NYIIV
notes: also called DAT-C5 variant
B22: NSVIV (peptide)
peptide: NSVIV
notes: also called DAT-C5 variant
B23: NSIRV (peptide)
peptide: NSIRV
notes: also called DAT-C5 variant
B24: NEIIV (peptide)
peptide: NEIIV
notes: also called DAT-C5 variant
B25: NEVRV (peptide)
peptide: NEVRV
notes: also called DAT-C5 variant
B26: NSIIV (peptide)
peptide: NSIIV
notes: also called DAT-C5 variant
B27: NSVRV (peptide)
peptide: NSVRV
notes: also called DAT-C5 variant
B28: NEIRV (peptide)
peptide: NEIRV
notes: also called DAT-C5 variant
B29: SNTANRRTTPV (peptide)
peptide: SNTANRRTTPV
notes: also called Stg; RRTTPV monomer
B30: CC-Tet-GS4-HWLKV (peptide)
peptide: {Biotin-Ahx}-GELAAIKQELAAIKKELAAIKWELAAIKQGGGGSHWLKV
notes: also called CC-tet2-GS4-HWLKV
B31: CC-Hex2-GS4-HWLKV (peptide)
peptide: {Biotin-Ahx}-GEIAKSLKEIAKSLKEIAWSLKEIAKSLKGGGGSHWLKV
notes: also called CC-hex-GS4-HWLKV
B32: GCN4p1-GS4-GS4 (non-binding control peptide) (peptide)
peptide: not shown
modifications: N-terminal biotin joined through 6-aminohexanoic acid (Ahx)
notes: also called biotin-Ahx-GCN4p1-GS4-GS4; biotin-Ahx-GCN4p1-GS-GS
B33: EVIV (peptide)
peptide: EVIV
notes: also called DAT-C5 variant
B34: YIRV (peptide)
peptide: YIRV
notes: also called DAT-C5 variant
B35: YIIV (peptide)
peptide: YIIV
notes: also called DAT-C5 variant
B36: EIRV (peptide)
peptide: EIRV
notes: also called DAT-C5 variant
B37: YVIV (peptide)
peptide: YVIV
notes: also called DAT-C5 variant
B38: YVRV (peptide)
peptide: YVRV
notes: also called DAT-C5 variant
B39: EVRV (peptide)
peptide: EVRV
notes: also called DAT-C5 variant
B40: CC-Hex2-GS4-RRTTPV (peptide)
peptide: {Biotin-Ahx}-GEIAKSLKEIAKSLKEIAWSLKEIAKSLKGGGGSRRTTPV
B41: CC-Hex2-GS4-IETDV (peptide)
peptide: {Biotin-Ahx}-GEIAKSLKEIAKSLKEIAWSLKEIAKSLKGGGGSIETDV
B42: TEVRV (peptide)
peptide: TEVRV
notes: also called DAT-C5 variant
B43: TSVIV (peptide)
peptide: TSVIV
notes: also called DAT-C5 variant
B44: TEVIV (peptide)
peptide: TEVIV
notes: also called DAT-C5 variant
B45: TSIRV (peptide)
peptide: TSIRV
notes: also called DAT-C5 variant
B46: TSIIV (peptide)
peptide: TSIIV
notes: also called DAT-C5 variant
B47: NYVIV (peptide)
peptide: NYVIV
notes: also called DAT-C5 variant
B48: NYVRV (peptide)
peptide: NYVRV
notes: also called DAT-C5 variant
B49: TEIRV (peptide)
peptide: TEIRV
notes: also called DAT-C5 variant
B50: CC-Hex2-GS4-NSVRV (peptide)
peptide: {Biotin-Ahx}-GEIAKSLKEIAKSLKEIAWSLKEIAKSLKGGGGSNSVRV

50 molecules from patent US20230348540A1 (UNIVERSITY OF COPENHAGEN, published 2023) can be followed below.

Ends that are not written are not given here. * marks the point of attachment. Biotin = O=C1N[C@H]2[C@H](CS[C@H]2CCCCC(=O)*)N1; Ahx = NCCCCCC(=O)O

Broadly, the Ki is a measure of affinity in units of concentration, obtained from inhibition or displacement. High values mean weaker binding, low ones tighter binding.

One assay concerns the target T1, Full length rat PICK1 (Protein Interacting with C Kinase-1) (rat, UniProt Q9EP80 1-416).
T1 construct: mature; Residues left by the cleaved tag are not described; also called purified PICK1
In words: FP competition on purified PICK1, tracer 5FAM-HWLKV 20 nM; fold change against HWLKV [panel 4 from the left].
As to B1, the binding result is “binds”. On the same count and under the same terms, the result for B2 reads “binds”; that for B3, “binds”. On the same count and under the same terms, the result for B4 reads “binds”. Still for that read-out and setting: the result for B5 reads “binds”; that for B6, “binds”; that for B7, “binds”. Regarding B8, the binding result is on record as “binds”. Same read-out and setting: the result for B9 reads “binds”; that for B10, “binds”.

The next assay concerns the target T1, Full length rat PICK1 (Protein …). In words: FP competition on purified PICK1, tracer 5FAM-HWLKV 20 nM; fold change against HWLKV [panel 3 from the left].
With B11, the binding result was “binds”.

Turning to B12, the binding result is listed as “binds”. Take B13: the binding result is on record as “binds”. Still for that read-out and setting: the result for B14 reads “binds”. Same read-out and setting: the result for B15 reads “binds”. As for B16, the binding result was “binds”. On the same count and under the same terms, the result for B17 reads “binds”; that for B18, “binds”. On the same count and under the same terms, the result for B19 reads “binds”.

For another assay the target is unchanged. The assay is described as follows: FP competition on purified PICK1, tracer 5FAM-HWLKV 20 nM; fold change against HWLKV [panel 1 from the left].
Regarding B20, the binding result is on record as “binds”. The same measure, in the same setting: the result for B21 reads “binds”; that for B22, “binds”. Same read-out and setting: the result for B23 reads “binds”; that for B24, “binds”; that for B25, “binds”. The same measure, in the same setting: the result for B26 reads “binds”; that for B27, “binds”; that for B28, “binds”.

The target in a further assay is T2, TRX-6xHis-hPSD95 1-724 (full length human PSD-95) (human, UniProt P78352 1-724, Alexa488 label in the confocal experiment of Example 5 only).
T2 construct: range 1-724; Purified by HisTrap and SEC; also called FL-PSD-95; not shown: TRX-6xHis tag encoded by the pET-MG-3C plasmid
In words: SDS-PAGE sedimentation assay.
For B29, the binding result is given as “binds”.

For another assay, the target named is T1, Full length rat PICK1 (Protein …). In words: FP competition, tracer 5-FAM-(HWLKV)2 10 nM, PICK1 (Example 8). On the procedure:
The plates were incubated 30-40 min on ice and the fluorescence polarization was measured on an Omega POLARstar plate (BMG LABTECH) reader using excitation filter at 485 nm and long pass emission filter at 520 nm. The data was plotted using GraphPad Prism 8.3, and fitted to the ‘One site—Fit’ Kᵢ competition curve, to extract apparent KI values.
In the case of B30, the Ki came to 2.47 nM. Take B31: the affinity, expressed as Ki, was 22.9 nM.

A further assay addresses T3, PICK1 protein in mouse spinal cord lysate (mouse, UniProt Q62083 1-416).
T3 construct: Endogenous protein, detected by Western blot after pull-down
In words: pull-down with biotinylated peptide on streptavidin beads from mouse spinal cord lysate, western blot [D]. A general note: Immunoblotting shows a protein as a band on a membrane.
As for B32, the binding result is given as “no binding”.

A further assay deals with T1, Full length rat PICK1 (Protein …). In words: FP competition on purified PICK1, tracer 5FAM-HWLKV 20 nM; fold change against HWLKV [panel 5 from the left].
For B33, the binding result is “binds”.

Take B34: the binding result was “binds”. The same measure, in the same setting: the result for B35 reads “binds”.

As to B36, the binding result is listed as “binds”. Still for that read-out and setting: the result for B37 reads “binds”; that for B38, “binds”; that for B39, “binds”.

Another assay deals with T4, PSD-95 PDZ1-2 (UniProt P78352 61-249, limits assumed).
T4 construct: domain: PDZ1-2
The assay is described as follows: FP competition, tracer 5-FAM-(IETAV)2 5 nM, PSD-95 PDZ12 0.15 µM. From the text: FIG. 18: Fluorescence polarization competition binding curves for the unlabelled peptides. […] Data expressed as mean±SEM (n=3).
The data was plotted using GraphPad Prism 8.3, and fitted to the ‘One site—Fit’ Kᵢ competition curve, to extract apparent KI values.
In the case of B40, affinity was put at a Ki of 242 nM. The same measure, in the same setting: the result for B41 reads 56 nM.

The next assay deals with T5, nNOS protein in mouse spinal cord lysate (mouse, UniProt Q9Z0J4 1-1429, limits assumed).
T5 construct: Endogenous protein, detected by Western blot after pull-down
The assay is described as follows: pull-down with biotinylated peptide on streptavidin beads from mouse spinal cord lysate, western blot [D].
Consider B32, for which the binding result is “no binding”.

The next assay addresses T6, PSD-95 protein in mouse spinal cord lysate (mouse, UniProt Q62108 1-724, limits assumed).
T6 construct: Endogenous protein, detected by Western blot after pull-down
The assay is described as above.
B32: the binding result is “no binding”.

A further assay deals with T1, Full length rat PICK1 (Protein …). The assay is described as follows: FP competition on purified PICK1, tracer 5FAM-HWLKV 20 nM; fold change against HWLKV [panel 2 from the left].
As for B42, the binding result is on record as “binds”. With B43, the binding result is “binds”. Same read-out and setting: the result for B44 reads “binds”. Still for that read-out and setting: the result for B45 reads “binds”; that for B46, “binds”. The same measure, in the same setting: the result for B47 reads “binds”; that for B48, “binds”; that for B49, “binds”.

Another assay shares this target. The assay is described as follows: FP competition (FIG. 17C).
Turning to B50, the binding result is listed as “binds”.
